Data set [1] concerns the target N. salsuginis TatC (GFP-His removed) (Nitratifractor salsuginis). Description: cryo-EM structure; co-expressed TatBC complexes (E. coli, N. salsuginis, M. xanthus) and N. salsuginis TatAC complex, solubilised and purified in GDN.
The target of data set [2] is T1, E. coli TatC of the His-tagged TatBC complex (TatBC_(His)6) (Escherichia coli), P69423.
T1 chain: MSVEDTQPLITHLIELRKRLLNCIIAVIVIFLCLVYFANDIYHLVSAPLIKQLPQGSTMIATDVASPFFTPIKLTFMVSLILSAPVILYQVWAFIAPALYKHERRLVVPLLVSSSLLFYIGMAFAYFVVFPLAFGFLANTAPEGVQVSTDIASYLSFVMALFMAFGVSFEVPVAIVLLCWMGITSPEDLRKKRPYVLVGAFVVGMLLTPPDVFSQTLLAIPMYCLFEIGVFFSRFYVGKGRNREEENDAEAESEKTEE
Described as above. Conditions: remark: other sources report otherwise.

Data set [3] concerns the molecule itself. Put plainly: cryo-EM structure; complex assembled in vitro: Ulp1-cut His6-SUMO-MdoD or -CueO mixed with purified E. coli TatBC or TatABC complex overnight at 4 °C, SEC in 50 mM Tris pH 8.0, 200 mM NaCl, 1 mM EDTA, 0.02% GDN; excess substrate.
The target of data set [4] is T2, E. coli TatBC complex purified by a Twin-Strep tag on TatC (sample of the TatBC-MdoD structure) (Escherichia coli, UniProt P69425 1-171; P69423 1-258).
T2 construct: TatB of Escherichia coli, as m1; TatC of Escherichia coli, as m5; No TatA density was found; source: E. coli, overexpressed TatABC purified solely by the TatC Twin-Strep tag in GDN; only very low levels of TatA in the purified material; copies: 3 + 3
T2 sequence 1: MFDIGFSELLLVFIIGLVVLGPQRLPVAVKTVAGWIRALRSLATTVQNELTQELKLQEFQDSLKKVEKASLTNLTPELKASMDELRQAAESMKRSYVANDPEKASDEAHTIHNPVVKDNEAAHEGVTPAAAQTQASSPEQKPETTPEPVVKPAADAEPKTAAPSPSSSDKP
T2 sequence 2: T1 chain
The description is as above. As to conditions: both partners purified.

Data set [5] deals with the molecule itself. Description: cryo-EM structure; co-expressed TatBC complexes (E. coli, N. salsuginis, M. xanthus) and N. salsuginis TatAC complex, solubilised and purified in GDN.
In data set [6] the target is T3, E. coli TatC with C-terminal Twin-Strep tag, expressed from a tatABC plasmid (Escherichia coli, UniProt P69423 1-258).
T3 construct: TatC of Escherichia coli, PCR from E. coli genomic DNA (DSM 1116); also called TatC_(strep); not shown: Twin-Strep, C-terminal, kept
T3 sequence: T1 chain
Put plainly: densitometry of Coomassie-stained SDS-PAGE of purified complexes; purified TatABC (TatA_26(His)6_TatBC) and TatBC (TatBC_(His)6) at four dilutions, bands quantified with ImageJ. Conditions: both partners purified.

Data set [7] deals with T3, E. coli TatC with C-terminal Twin-Strep …. Put plainly: cryo-EM structure; purified E. coli TatABC with an ALFA tag inserted in TatA or TatB, labelled with an anti-ALFA nanobody; 2D class averages and a 6.4 Å map. Conditions: both partners purified.
The target of data set [8] is N. salsuginis TatBC complex (Nitratifractor salsuginis). Put plainly: cryo-EM structure; 50 μl N. salsuginis TatBC (A280nm = 8.0) mixed with 50 μl CueO peptide (1 mg/ml), 12 h at 4 °C, in GDN.
Data set [9] deals with the molecule itself. Description: crystal structure; SeMet-labelled isolated periplasmic domain; sitting drop, 21 °C, 0.2 M lithium sulphate, 0.1 M Tris pH 8.5, 10% PEG 8000, 10% PEG 1000.

The stoichiometry N is the number of molecules, sites or subunits per partner or assembly. In data set [1], “N. salsuginis TatC (GFP-His removed) (natural protein)” gave a stoichiometry N of 3.

B1: E. coli TatC of the His-tagged TatBC complex (TatBC_(His)6), P69423 1-258 (natural protein)
chain: T1 chain
In turn, B1 had a stoichiometry N in data set [2] of 3.

B2: E. coli MdoD, full length with its Tat signal peptide (natural protein, Escherichia coli, UniProt P40120 1-551, looked up)
chain: MDRRRFIKGSMAMAAVCGTSGIASLFSQAAFAADSDIADGQTQRFDFSILQSMAHDLAQTAWRGAPRPLPDTLATMTPQAYNSIQYDAEKSLWHNVENRQLDAQFFHMGMGFRRRVRMFSVDPATHLAREIHFRPELFKYNDAGVDTKQLEGQSDLGFAGFRVFKAPELARRDVVSFLGASYFRAVDDTYQYGLSARGLAIDTYTDSKEEFPDFTAFWFDTVKPGATTFTVYALLDSASITGAYKFTIHCEKSQVIMDVENHLYARKDIKQLGIAPMTSMFSCGTNERRMCDTIHPQIHDSDRLSMWRGNGEWICRPLNNPQKLQFNAYTDNNPKGFGLLQLDRDFSHYQDIMGWYNKRPSLWVEPRNKWGKGTIGLMEIPTTGETLDNIVCFWQPEKAVKAGDEFAFQYRLYWSAQPPVHCPLARVMATRTGMGGFSEGWAPGEHYPEKWARRFAVDFVGGDLKAAAPKGIEPVITLSSGEAKQIEILYIEPIDGYRIQFDWYPTSDSTDPVDMRMYLRCQGDAISETWLYQYFPPAPDKRQYVDDRVMS
notes: MdoD of Escherichia coli, precursor with its 32-residue Tat signal peptide; source: E. coli BL21 (DE3) ΔtatABCD ΔtatE, pET28a with N-terminal His6-SUMO, purified (His tag column), cut with Ulp1; not shown: His6, N-terminal, cleaved; SUMO, N-terminal, cleaved
Turning to B2, the “stoichiometry N” value in data set [3] was 2; in data set [4], 3 MdoD per (TatBC)3 complex.

B3: E. coli TatB (natural protein, Escherichia coli)
chain: T2 sequence 1
notes: TatB of Escherichia coli, PCR from E. coli genomic DNA (DSM 1116); residues 1-63 modelled in the TatBC structure; source: E. coli MC4100 ΔtatABCD ΔtatE, overexpressed from a plasmid with TatC (and TatA), purified in GDN as part of the complex
Take B3: the binding result in data set [5] is on record as “binds”. For the same molecule, the “ratio of TatB to TatC in the TatABC complex relative to the TatBC complex” value in data set [6] came out at 0.78.

B4: E. coli TatB with an inserted ALFA-His tag (natural protein, Escherichia coli, UniProt P69425 1-171, looked up)
chain: T2 sequence 1
notes: TatB of Escherichia coli; also called TatB_(ALFA)
Take B4: the “stoichiometry N” value in [7] was 2 TatB per core complex.

B5: E. coli TatA with an inserted ALFA-His tag (natural protein, Escherichia coli, UniProt P69428 1-89, looked up)
chain: MGGISIWQLLIIAVIVVLLFGTKKLGSIGSDLGASIKGFKKAMSDDEPKQDKTSQDADFTAKTIADKQADTNQEQAKTEDAKRHDKEQV
notes: TatA of Escherichia coli; also called TatA_(ALFA); TatA_(ALFA,His); not shown: ALFA, internal (in the cytoplasmic part of TatA), kept
Turning to B5, the “stoichiometry N” value in [7] amounted to 1 TatA per core complex.

B6: M. xanthus TatC (GFP-His removed) (natural protein, Myxococcus xanthus)
chain: MSLADHLTELRSRLMRCTIAVLILGTISLVFAKPIFGLLMQPVLDALPPENRSLIYTSGIEELNVLMKVGVYCGIFLTTPVILMQIWGFVSPGLYPEERRFAAPFVAFGSIAFLLGAAFCYFAVLPSMFTFLLNEEETLALEQRLDTARLRADDALRFLRLGEAEEAGRIAKETSTQLRAEGQGQAPAPEVAPAASVEMTGRLDGLGRLLDAASVGYGAQSRGVLRQAVEKRVEAVTAYEKKDFAAAAAAMDGSASLLAGIAPTRTEELAGLWRLEKELATAHAAHEAARWTRPMLSMHEQLSLVLLLILAFGIIFELPLVMALLGVVGVVKSSWLFRYQRHAFVVCLIAAAIITPTGDVVNLSLMAGPMLLCYELGVLLVWMVERRRARNSAETGITPAS
notes: TatC of Myxococcus xanthus (ATCC 19368), codon-optimised synthetic gene; has a folded periplasmic insert domain
Take B6: the “stoichiometry N” value in data set [5] worked out at 3.

B7: E. coli CueO signal peptide (residues 1-28) (peptide)
peptide: MQRRDFLKYSVALGVASALPLWSRAVFA
Consider B7, for which the stoichiometry N (signal peptide per TatB and TatC) in data set [8] worked out at 1.

B8: M. xanthus TatC periplasmic domain (residues 127-303) (domain or fragment, Myxococcus xanthus, UniProt Q2PHA2 127-303, looked up)
chain: SMFTFLLNEEETLALEQRLDTARLRADDALRFLRLGEAEEAGRIAKETSTQLRAEGQGQAPAPEVAPAASVEMTGRLDGLGRLLDAASVGYGAQSRGVLRQAVEKRVEAVTAYEKKDFAAAAAAMDGSASLLAGIAPTRTEELAGLWRLEKELATAHAAHEAARWTRPMLSMHEQLS
modifications: selenomethionine-labelled
notes: periplasmic domain of TatC of Myxococcus xanthus, residues 127-303; also called M. xanthus insert; source: E. coli B834 (DE3), pET15b, SelenoMethionine media, purified (Ni-NTA, TEV, SEC)
Turning to B8, in data set [9], the “stoichiometry N” value amounted to 3.

The values are drawn from article PMC13323110, “Structure and substrate recognition by the bacterial twin-arginine translocation (Tat) core complex” (Nature Microbiology, 2026).
